Data from US20180000963A1 (HELIX BIOPHARMA, published 2018).
Several values for one entry are separate records, joined by “and”; a condition that tells them apart may be missing. Equal values may be shown once.

B1: CEACAM6 (carcinoembryonic antigen-related cell adhesion molecule 6) on the surface of human tumor cell lines (receptor)
chain: KLTIESTPFNVAEGKEVLLLAHNLPQNRIGYSWYKGERVDGNSLIVGYVIGTQQATPGPAYSGRETIYPNASLLIQNVTQNDTGFYTLQVIKSDLVNEEATGQFHVYPELPKPSISSNNSNPVEDKDAVAFTCEPEVQNTTYLWWVNGQSLPVSPRLQLSNGNMTLTLLSVKRNDAGSYECEIQNPASANRSDPVTLNVLYGPDVPTISPSKANYRPGENLNLSCHAASNPPAQYSWFINGTFQQSTQELFIPNITVNNSGSYMCQAHNSATGLNRTTVTMITVSG
notes: whole, on cells; also called CEACAM6 antigen; NCA
B2: AFAIKL2 antibody (single-domain camelid antibody fragment) (VHH)
VHH: DVQLQASGGGVVQPGGSLRLSCAAHDPIFDKNLMGWGRQAPGKQREYVATISGSGGTNYASSVEGRFTISRDNAKKTVYLQMNDLKPEDTAVYYCNSAFAIWGQGTQVTVSS
notes: Expressed in E. coli BL21 (DE3) pT7-7; also called AFAIKL2-tag; native single domain antibody

Assays:
[1] = target: T1, L-DOS47 (anti-CEACAM6-urease conjugate); AFAIKL2 antibody conjugated to Jack bean urease through the SIAB … (Jack bean (Canavalia ensiformis), UniProt P07374 1-840, primary amines linked through the SIAB linkage to urease cysteines); activation sites Lys76, Met1 (N-terminal amine), Lys44, Lys32; cysteine thiols linked through the SIAB linkage to AFAIKL2; …); assay: whole-cell binding assay, ZR-75-30 cells
T1 construct: Chemical conjugate, not a fusion; Hexameric urease (six ~91 kDa subunits) carries 0-4 AFAIKL2 per subunit; In the ECL assays it was labelled with ruthenium-NHS-ester (Sulfo-Tag); also called antibody-urease conjugate; AFAIKL2-urease
T1 sequence (P07374 whole entry, chain 1 of 2, the tested form may be a part): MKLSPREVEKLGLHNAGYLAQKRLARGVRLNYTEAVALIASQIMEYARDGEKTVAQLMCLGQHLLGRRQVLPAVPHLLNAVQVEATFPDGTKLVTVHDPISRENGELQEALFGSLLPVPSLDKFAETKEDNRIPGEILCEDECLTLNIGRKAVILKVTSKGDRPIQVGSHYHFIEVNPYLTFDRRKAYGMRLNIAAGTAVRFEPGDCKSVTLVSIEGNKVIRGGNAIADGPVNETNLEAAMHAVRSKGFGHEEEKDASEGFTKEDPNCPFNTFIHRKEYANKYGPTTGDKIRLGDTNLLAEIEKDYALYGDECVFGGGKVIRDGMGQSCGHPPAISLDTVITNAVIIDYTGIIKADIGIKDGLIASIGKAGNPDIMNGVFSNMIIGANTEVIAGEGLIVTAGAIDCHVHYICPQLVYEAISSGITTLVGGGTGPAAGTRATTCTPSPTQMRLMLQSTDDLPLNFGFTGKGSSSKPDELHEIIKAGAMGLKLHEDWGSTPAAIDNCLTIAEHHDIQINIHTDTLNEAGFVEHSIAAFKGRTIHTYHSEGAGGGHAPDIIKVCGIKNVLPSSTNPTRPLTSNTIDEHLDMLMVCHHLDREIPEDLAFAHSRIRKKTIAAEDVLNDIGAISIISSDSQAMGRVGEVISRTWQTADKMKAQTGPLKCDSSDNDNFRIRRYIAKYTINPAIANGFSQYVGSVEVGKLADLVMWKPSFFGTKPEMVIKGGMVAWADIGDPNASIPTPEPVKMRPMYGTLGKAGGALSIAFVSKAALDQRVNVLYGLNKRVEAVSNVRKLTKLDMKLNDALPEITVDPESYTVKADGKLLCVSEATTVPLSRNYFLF
T1 sequence (VHH, as listed by the source limits assumed, chain 2 of 2): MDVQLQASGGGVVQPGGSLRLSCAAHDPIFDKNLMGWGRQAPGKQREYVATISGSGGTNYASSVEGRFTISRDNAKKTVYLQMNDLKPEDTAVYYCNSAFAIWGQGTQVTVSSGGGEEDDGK

[2] = target: T2, DOS47 (Jack bean urease, unconjugated) (Jack bean (Canavalia ensiformis), UniProt P07374 1-840); assay: whole-cell binding assay (ammonia read-out) on BxPC-3, Capan-1, ZR-75-30, LS174T and MDA-MB231 cells
T2 construct: Purified from jack bean; hexamer of six identical subunits; also called HPU; high purity urease
T2 sequence (P07374 whole entry): as the sequence (P07374 whole entry, chain 1 of 2, the tested form may be a part) above

[3] = target: B1; assay: cell-based ECL competition; unlabelled competitor against L-DOS47-tag (1 µg/mL) on BxPC-3 cells

Binder | binding result [1] | binding result [2] | IC50 [3]
B1 | binds | no binding | 
B2 |  |  | ~20 µg/mL and ~1.55 µM
